These results are taken from patent US10772928B2, “Modulation and detection of a neuronal alternative splicing regulatory network for treatment and diagnosis of neurological disorders” (The Governing Council of the University of Toronto, priority 2014, dated 2020).

The test deals with T1, nSR100 (Mus musculus, UniProt Q8BKA3).
T1 construct: host or cells: mouse N2A cells
T1 sequence (Q8BKA3 1-608): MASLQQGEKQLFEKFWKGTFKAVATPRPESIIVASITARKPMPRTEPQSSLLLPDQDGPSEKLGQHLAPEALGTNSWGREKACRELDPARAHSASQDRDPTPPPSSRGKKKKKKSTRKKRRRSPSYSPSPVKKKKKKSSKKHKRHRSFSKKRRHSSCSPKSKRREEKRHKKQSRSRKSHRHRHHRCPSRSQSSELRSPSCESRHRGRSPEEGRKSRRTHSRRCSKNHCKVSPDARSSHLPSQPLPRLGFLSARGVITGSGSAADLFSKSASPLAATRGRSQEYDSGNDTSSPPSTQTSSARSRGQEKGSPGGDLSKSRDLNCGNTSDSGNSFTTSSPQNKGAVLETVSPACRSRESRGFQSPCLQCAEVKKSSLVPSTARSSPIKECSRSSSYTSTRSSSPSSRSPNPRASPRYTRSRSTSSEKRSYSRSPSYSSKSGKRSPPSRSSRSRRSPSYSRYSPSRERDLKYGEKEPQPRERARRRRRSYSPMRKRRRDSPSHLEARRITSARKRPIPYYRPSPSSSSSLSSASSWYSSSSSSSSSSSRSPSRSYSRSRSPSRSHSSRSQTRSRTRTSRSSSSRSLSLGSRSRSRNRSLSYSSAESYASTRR
Briefly: AP-MS nSR100 interaction partners from mouse N2A cells (Table 5). In kind it is binding. The conditions noted are these: for AvgP (average of the SAINT scores) / MaxP (maximal SAINT score): bait Srrm4; for FoldChange between the prey Avg spectra of the bait and control purifications: bait Srrm4, 0.1 added to prevent division by 0; for AvgSpec (average number of spectra per replicate): bait Srrm4, 2 replicates; for Spectra (number of spectra for the prey in the purification of the bait): AP-MS; for SpecSum: bait Srrm4, sum of spectra over 2 replicates.

Setting [1] is: bait Srrm4, biological replicate 1 (first number of the cell).
Setting [2] is: bait Srrm4, biological replicate 2 (second number of the cell).

Description: By applying affinity purification coupled to mass-spectrometry (AP-MS), several interaction nSR100 partner proteins were detected that provide insight into mechanisms of post-translational regulation of nSR100 levels.

As for Ap2a2, the “AvgP (average of the SAINT scores)” value is recorded as 1; the “MaxP (maximal SAINT score)” value was determined as 1; the “FoldChange between the prey Avg spectra of the bait and control purifications” value (“FoldChange between the prey Avg spectra” below) is 6.16; the “AvgSpec (average number of spectra per replicate)” value came out at 117. This substance yielded a SpecSum of 234. Also, the “Spectra (number of spectra for the prey in the purification of the bait)” value under setting [1] is 97. For the same substance, the “Spectra (number of spectra for the prey in the purification of the bait)” value under setting [2] worked out at 137.
For Snrnp70, the “AvgP (average of the SAINT scores)” value came to 1; the “MaxP (maximal SAINT score)” value is 1; the “FoldChange between the prey Avg spectra” value worked out at 5.1; the “AvgSpec (average number of spectra per replicate)” value came to 51. Also, the SpecSum turned out to be 102. Moreover, under setting [1], the “Spectra (number of spectra for the prey in the purification of the bait)” value stood at 48. Further, under setting [2], the “Spectra (number of spectra for the prey in the purification of the bait)” value turned out to be 54.
Regarding Ddx39b, the “AvgP (average of the SAINT scores)” value was 1; the “MaxP (maximal SAINT score)” value stood at 1; the “FoldChange between the prey Avg spectra” value turned out to be 150; the “AvgSpec (average number of spectra per replicate)” value is listed as 15. The substance further displayed a SpecSum of 30. The “Spectra (number of spectra for the prey in the purification of the bait)” value under setting [1] was 15|15. The “Spectra (number of spectra for the prey in the purification of the bait)” value under setting [2] was 15|15.
Prpf8: the “AvgP (average of the SAINT scores)” value came to 1; the “MaxP (maximal SAINT score)” value was 1; the “FoldChange between the prey Avg spectra” value was found to be 3.36; the “AvgSpec (average number of spectra per replicate)” value was determined as 60.5. Further, the SpecSum was 121. Besides, the “Spectra (number of spectra for the prey in the purification of the bait)” value under setting [1] is on record as 63. For the same substance, the “Spectra (number of spectra for the prey in the purification of the bait)” value under setting [2] was found to be 58.
As for Hspa2, the “AvgP (average of the SAINT scores)” value was 1; the “MaxP (maximal SAINT score)” value was 1; the “FoldChange between the prey Avg spectra” value came to 390; the “AvgSpec (average number of spectra per replicate)” value is reported as 39. Further, the SpecSum is on record as 78. Also, the “Spectra (number of spectra for the prey in the purification of the bait)” value under setting [1] was determined as 41. Moreover, the “Spectra (number of spectra for the prey in the purification of the bait)” value under setting [2] is on record as 37.
Consider Rfc2, for which the “AvgP (average of the SAINT scores)” value is listed as 0.95; the “MaxP (maximal SAINT score)” value is 0.95; the “FoldChange between the prey Avg spectra” value is reported as 20; the “AvgSpec (average number of spectra per replicate)” value is 2. This substance yielded a SpecSum of 4. The “Spectra (number of spectra for the prey in the purification of the bait)” value under setting [1] is listed as 2|2. Under setting [2], the “Spectra (number of spectra for the prey in the purification of the bait)” value is 2|2.
Take Idh2: the “AvgP (average of the SAINT scores)” value was 1; the “MaxP (maximal SAINT score)” value amounted to 1; the “FoldChange between the prey Avg spectra” value was 6.6; the “AvgSpec (average number of spectra per replicate)” value came out at 16.5. The SpecSum is 33. In addition, under setting [1], the “Spectra (number of spectra for the prey in the purification of the bait)” value was 17. Under setting [2], the “Spectra (number of spectra for the prey in the purification of the bait)” value turned out to be 16.
Prrc2a: the “AvgP (average of the SAINT scores)” value was 0.95; the “MaxP (maximal SAINT score)” value was found to be 0.95; the “FoldChange between the prey Avg spectra” value was determined as 20; the “AvgSpec (average number of spectra per replicate)” value is listed as 2. The substance further had a SpecSum of 4. The “Spectra (number of spectra for the prey in the purification of the bait)” value under setting [1] is on record as 2|2. Under setting [2], the “Spectra (number of spectra for the prey in the purification of the bait)” value is reported as 2|2.
On to Cdc42bpb, for which the “AvgP (average of the SAINT scores)” value stood at 1; the “MaxP (maximal SAINT score)” value is on record as 1; the “FoldChange between the prey Avg spectra” value is listed as 90; the “AvgSpec (average number of spectra per replicate)” value came to 9. Further, the SpecSum is on record as 18. Also, under setting [1], the “Spectra (number of spectra for the prey in the purification of the bait)” value stood at 6. Moreover, the “Spectra (number of spectra for the prey in the purification of the bait)” value under setting [2] is recorded as 12.
With Ap2m1, the “AvgP (average of the SAINT scores)” value was 1; the “MaxP (maximal SAINT score)” value is 1; the “FoldChange between the prey Avg spectra” value was 9.12; the “AvgSpec (average number of spectra per replicate)” value came to 36.5. For the same substance, the SpecSum worked out at 73. In addition, the “Spectra (number of spectra for the prey in the purification of the bait)” value under setting [1] is 31. Moreover, under setting [2], the “Spectra (number of spectra for the prey in the purification of the bait)” value is recorded as 42.
Take Snrpc: the “AvgP (average of the SAINT scores)” value is on record as 0.99; the “MaxP (maximal SAINT score)” value stood at 1; the “FoldChange between the prey Avg spectra” value was found to be 11; the “AvgSpec (average number of spectra per replicate)” value was 5.5. The SpecSum amounted to 11. The “Spectra (number of spectra for the prey in the purification of the bait)” value under setting [1] is recorded as 5. Further, under setting [2], the “Spectra (number of spectra for the prey in the purification of the bait)” value is on record as 6.
For the substance Srrm2, the “AvgP (average of the SAINT scores)” value was found to be 1; the “MaxP (maximal SAINT score)” value is 1; the “FoldChange between the prey Avg spectra” value turned out to be 5.37; the “AvgSpec (average number of spectra per replicate)” value was 51. The substance further displayed a SpecSum of 102. Further, the “Spectra (number of spectra for the prey in the purification of the bait)” value under setting [1] worked out at 47. The “Spectra (number of spectra for the prey in the purification of the bait)” value under setting [2] is listed as 55.
With Clk3, the “AvgP (average of the SAINT scores)” value was found to be 0.97; the “MaxP (maximal SAINT score)” value is 0.99; the “FoldChange between the prey Avg spectra” value worked out at 25; the “AvgSpec (average number of spectra per replicate)” value is recorded as 2.5. In addition, the SpecSum amounted to 5. Also, under setting [1], the “Spectra (number of spectra for the prey in the purification of the bait)” value is 2. Moreover, the “Spectra (number of spectra for the prey in the purification of the bait)” value under setting [2] was determined as 3.
As to Magohb, the “AvgP (average of the SAINT scores)” value was determined as 1; the “MaxP (maximal SAINT score)” value came to 1; the “FoldChange between the prey Avg spectra” value came to 21; the “AvgSpec (average number of spectra per replicate)” value stood at 10.5. Also, the SpecSum amounted to 21. The “Spectra (number of spectra for the prey in the purification of the bait)” value under setting [1] came out at 10. Also, the “Spectra (number of spectra for the prey in the purification of the bait)” value under setting [2] came out at 11.
Turning to Bub3, the “AvgP (average of the SAINT scores)” value is 1; the “MaxP (maximal SAINT score)” value is on record as 1; the “FoldChange between the prey Avg spectra” value stood at 9.5; the “AvgSpec (average number of spectra per replicate)” value amounted to 19. Further, the SpecSum worked out at 38. Moreover, the “Spectra (number of spectra for the prey in the purification of the bait)” value under setting [1] turned out to be 17. Also, the “Spectra (number of spectra for the prey in the purification of the bait)” value under setting [2] came to 21.
As to Cdk1, the “AvgP (average of the SAINT scores)” value was 1; the “MaxP (maximal SAINT score)” value came to 1; the “FoldChange between the prey Avg spectra” value is recorded as 14.25; the “AvgSpec (average number of spectra per replicate)” value came to 57. This substance gave a SpecSum of 114. Besides, the “Spectra (number of spectra for the prey in the purification of the bait)” value under setting [1] turned out to be 47. Also, the “Spectra (number of spectra for the prey in the purification of the bait)” value under setting [2] was 67.
Turning to Wdr48, the “AvgP (average of the SAINT scores)” value was determined as 1; the “MaxP (maximal SAINT score)” value stood at 1; the “FoldChange between the prey Avg spectra” value turned out to be 45; the “AvgSpec (average number of spectra per replicate)” value is on record as 4.5. This substance also registered a SpecSum of 9. The “Spectra (number of spectra for the prey in the purification of the bait)” value under setting [1] was 3. For the same substance, the “Spectra (number of spectra for the prey in the purification of the bait)” value under setting [2] worked out at 6.
Turning to Csnk2b, the “AvgP (average of the SAINT scores)” value came out at 0.99; the “MaxP (maximal SAINT score)” value is reported as 1; the “FoldChange between the prey Avg spectra” value came out at 8.5; the “AvgSpec (average number of spectra per replicate)” value stood at 8.5. For the same substance, the SpecSum was 17. Further, the “Spectra (number of spectra for the prey in the purification of the bait)” value under setting [1] stood at 10. In addition, the “Spectra (number of spectra for the prey in the purification of the bait)” value under setting [2] turned out to be 7.
In the case of Pnn, the “AvgP (average of the SAINT scores)” value turned out to be 1; the “MaxP (maximal SAINT score)” value was 1; the “FoldChange between the prey Avg spectra” value is recorded as 25.33; the “AvgSpec (average number of spectra per replicate)” value worked out at 38. The SpecSum is 76. Under setting [1], the “Spectra (number of spectra for the prey in the purification of the bait)” value worked out at 33. Further, the “Spectra (number of spectra for the prey in the purification of the bait)” value under setting [2] turned out to be 43.
Consider Son, for which the “AvgP (average of the SAINT scores)” value worked out at 0.98; the “MaxP (maximal SAINT score)” value is reported as 1; the “FoldChange between the prey Avg spectra” value turned out to be 45; the “AvgSpec (average number of spectra per replicate)” value is 4.5. The SpecSum is listed as 9. Moreover, the “Spectra (number of spectra for the prey in the purification of the bait)” value under setting [1] is given as 2. The “Spectra (number of spectra for the prey in the purification of the bait)” value under setting [2] is given as 7.
With Pcbp1, the “AvgP (average of the SAINT scores)” value worked out at 0.99; the “MaxP (maximal SAINT score)” value stood at 1; the “FoldChange between the prey Avg spectra” value is 11.33; the “AvgSpec (average number of spectra per replicate)” value is 17. The SpecSum is 34. Moreover, under setting [1], the “Spectra (number of spectra for the prey in the purification of the bait)” value turned out to be 16. Further, under setting [2], the “Spectra (number of spectra for the prey in the purification of the bait)” value is on record as 18.
Consider Gpatch8, for which the “AvgP (average of the SAINT scores)” value stood at 0.95; the “MaxP (maximal SAINT score)” value is on record as 0.95; the “FoldChange between the prey Avg spectra” value worked out at 20; the “AvgSpec (average number of spectra per replicate)” value was 2. The SpecSum was found to be 4. Further, the “Spectra (number of spectra for the prey in the purification of the bait)” value under setting [1] is listed as 2|2. The “Spectra (number of spectra for the prey in the purification of the bait)” value under setting [2] was 2|2.
